# Experimental data reported in article PMC7412794.
# “Also recorded” adds a separate entry of the source.
# B1: Trichoderma reesei Cel7A (TrCel7A): endoglycosidase H (protein)
# parent chain: MYRKLAVISAFLATARAQSACTLQSETHPPLTWQKCSSGGTCTQQTGSVVIDANWRWTHATNSSTNCYDGNTWSSTLCPDNETCAKNCCLDGAAYASTYGVTTSGNSLSIGFVTQSAQKNVGARLYLMASDTTYQEFTLLGNEFSFDVDVSQLPCGLNGALYFVSMDADGGVSKYPTNTAGAKYGTGYCDSQCPRDLKFINGQANVEGWEPSSNNANTGIGGHGSCCSEMDIWEANSISEALTPHPCTTVGQEICEGDGCGGTYSDNRYGGTCDPDGCDWNPYRLGNTSFYGPGSSFTLDTTKKLTVVTQFETSGAINRYYVQNGVTFQQPNAELGSYSGNELNDDYCTAEEAEFGGSSFSDKGGLTQFKKATSGGMVLVMSLWDDYYANMLWLDSTYPTNETSSTPGAVRGSCSTSSGVPAQVESQSPNAKVTFSNIKFGPIGSTGNPSGGNPPGGNRGTTTTRRPATTTGSSPGPTQSHYGQCGGIGYSGPTVCASGTTCQVLNPYYSQCL
# B2: Trichoderma reesei Cel7A (TrCel7A): ΔN-glycTr (protein)
# parent chain: B1 parent chain
# B3: Trichoderma reesei Cel7A (TrCel7A): N45QAo (protein)
# parent chain: B1 parent chain
# B4: Trichoderma reesei Cel7A (TrCel7A): N270QAo (protein)
# parent chain: B1 parent chain
# B5: Trichoderma reesei Cel7A (TrCel7A): N384QAo (protein)
# parent chain: B1 parent chain
# B6: Trichoderma reesei Cel7A (TrCel7A): ΔN-glycAo (protein)
# parent chain: B1 parent chain
# Columns and labels:
# [1] = invMM kinetics, 12 g/L Avicel; details: glycan lost; control: untreated TrCel7A CD (no linker, no CBM)
# [2] = pNP-Lac activity after 1 h at Tm−5 °C; details: glycan lost
# [3] = DSC; details: glycan lost
# [4] = invMM kinetics (enzyme excess), 50 °C, 1 h; details: glycan lost; control: WTAo
# [5] = convMM kinetics, 50 °C, 1 h, reducing ends; details: glycan lost; control: WTAo
protein,measurement,setting,value
B1,enzymatic_activity,[1],increases
B2,"stability_or_folding, other: residual activity",[2]; control: WTTr,"no change, 44 ± 1 vs 45 ± 2"
same,"stability_or_folding, Tm",[3]; control: WTTr,"decreases, 65.2 vs 67.9"
B3,"stability_or_folding, other: residual activity",[2]; control: WTAo,"decreases, 38 ± 2 vs 57 ± 1"
same,"stability_or_folding, Tm",[3]; control: WTAo,"decreases, 67.4 vs 67.9"
same,"enzymatic_activity, other: invVmax/S0",[4],"increases, 0.52 ± 0.02 vs 0.45 ± 0.02"
same,"enzymatic_activity, other: convVmax/E0 (kcat)",[5],"no change, 1.33 ± 0.09 vs 1.46 ± 0.14"
B4,"stability_or_folding, other: residual activity",[2]; control: WTAo,"no change, 60 ± 3 vs 57 ± 1"
same,"stability_or_folding, Tm",[3]; control: WTAo,"decreases, 66.9 vs 67.9"
B5,"stability_or_folding, other: residual activity",[2]; control: WTAo,"no change, 57 ± 3 vs 57 ± 1"
same,"stability_or_folding, Tm",[3]; control: WTAo,"decreases, 66.1 vs 67.9"
same,"enzymatic_activity, other: convVmax/E0 (kcat)",[5],"decreases, 0.34 ± 0.01 vs 0.48 ± 0.02; also recorded: decreases, 1.01 ± 0.03 vs 1.46 ± 0.14"
B6,"stability_or_folding, other: residual activity",[2]; control: WTAo,"decreases, 41 ± 2 vs 57 ± 1"
same,"stability_or_folding, Tm",[3]; control: WTAo,"decreases, 65.0 vs 67.9"
